Data published in patent US20220305098.

Target: T1, S5a protein (Ube3a target protein), P55036
T1 chain: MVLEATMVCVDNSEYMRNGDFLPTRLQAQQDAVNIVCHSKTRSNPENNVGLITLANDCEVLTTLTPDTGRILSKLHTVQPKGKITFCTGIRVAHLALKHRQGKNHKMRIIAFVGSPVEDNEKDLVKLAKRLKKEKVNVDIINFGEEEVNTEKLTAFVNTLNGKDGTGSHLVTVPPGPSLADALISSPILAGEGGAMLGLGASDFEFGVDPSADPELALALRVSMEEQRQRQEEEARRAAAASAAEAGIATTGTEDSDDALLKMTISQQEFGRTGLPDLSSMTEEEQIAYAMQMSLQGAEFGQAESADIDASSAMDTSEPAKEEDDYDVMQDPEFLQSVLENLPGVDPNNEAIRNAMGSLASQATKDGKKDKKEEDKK

B1: Human Ube3a isoform 1 with 8xN-glycan sites and IL2 secretion signal (expressed from the hAS8 lentiviral vector) (protein)
chain: MKRAAAKHLIERYYHQLTEGCGNEACTNEFCASCPTFLRMDNNTAAIKALELYKINAKLCDPHPSKKGASSAYLENSTGAPNNTCSEIKMNKKGARIDFKDVTYLTEEKVYEILELCREREDYSPLIRVIGRVFSSAEALVQSFRKVKQHTKEELKSLQAKDEDKDEDEKEKAACSAAAMEEDSEASSSRIGDSSQGDNNTQKLGPDDVSVDIDAIRRVYTRLLSNEKIETAFLNALVYLSPNVECDLTYHNVYSRDPNYLNLFIIVMENRNLHSPEYLEMALPLFCKAMSKLPLAAQGKLIRLWSKYNADQIRRMMETFQQLITYKVISNEFNSTNLVNDDDAIVAASKCLKMVYYANVVGGEVDTNHNEEDDEEPIPESSELTLQELLGEERRNKKGPRVDPLETELGVKTLDCRKPLIPFEEFINEPLNEVLEMDKDYTFFKVETENKFSFMTCPFILNAVTKNLGLYYDNRIRMYSERRITVLYSLVQGQQLNPYLRLKVRRDHIIDDALVRLEMIAMENPADLKKQLYVEFEGEQGVDEGGVSKEFFQLVVEEIFNPDIGMFTYDNSTKLFWFNPSSFETEGQFTLIGIVLGLAIYNNTILDVHFPMVVYRKLMGKKGTFRDLGDSHPVLYQSLKDLLEYEGNVEDDMMITFQISQTDLFGNPMMYDLKENGDKIPITNENRKEFVNLYSDYILNKSVEKQFKAFRRGFHMVTNESPLKYLFRPEEIELLICGSRNLDFQALEETTEYDGGYTRDSVLIREFWEIVHSFTDEQKRLFLQNNTGTDRAPVGGLGKLKMIIAKNGPDTERLPTSHTCFNVLLLPEYSSKEKLKERLLKAITYAKGFGML
  ubiquitination activity of the Ube3a S5a target protein (blot, bands of ubiquitinated S5A): different mutated forms of Ube3a ubiquitinate their S5A target
